± gives the standard deviation.
Assay: collision cross section of unmodified peptide (TIMS, N2, iRT-aligned); higher = larger / more extended gas-phase ion
Experimental: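 Unmodified synthetic counterpart peptides (ProteomeTools / JPT), analysed by nanoLC-TIMS-QTOF (dda-PASEF). 1/K0 was aligned run-wise to spiked iRT peptides and converted to CCS in N2 (Mason-Schamp). Values are the mean of 1-3 technical replicates for the most abundant feature at each charge state. The same unmodified peptide is repeated across rows and is averaged.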

Substance	collision cross section (charge state: 2)	collision cross section (charge state: 3)
FDDTNPEKEEAK	396.22 ± 1.8 Å²	501.37 ± 2.2 Å²
FEGAIYR	317.08 ± 0.15 Å²	
FGDSRGGGGNFGPGPGSNFR		494.59 ± 1.9 Å²
FGRGTGLTQPSQR	395.55 ± 1.4 Å²	470.69 ± 2.1 Å²
FGSRGGPGGGFR	358.01 ± 0.11 Å²	437.12 ± 3.8 Å²
FGTINIVHPKLGSYTK	468.97 ± 3 Å²	531.6 ± 4.8 Å²
FGVEAFSDCLR	384.72 ± 0.67 Å²	
FGYVDFESAEDLEK	428.91 ± 0.24 Å²	
FHYQDQEFLK	406.29 ± 0.68 Å²	457.95 ± 1.7 Å²
FIHQQPQSSSPVYGSSAK		514.9 ± 0.21 Å²
FLQEFYQDDELGK	424.29 ± 0.5 Å²	
FLQEFYQDDELGKK	448.73 ± 2.1 Å²	492.87 ± 3.2 Å²
FNALFAQGNYSEAAK	435.05 ± 0.49 Å²	
FPGVGVLPGVPTGAGVK	421.12 ± 0.5 Å²	509.46 ± 1.2 Å²
FPGVGVLPGVPTGAGVKPK	467.47 ± 1.8 Å²	560.63 ± 0.35 Å²
FRSGNYR	328.09 ± 0.7 Å²	402.54 ± 6.1 Å²
FSAYIKNSNPALNDNLEK	493.15 ± 3.7 Å²	521.97 ± 3.2 Å²
FSHSVQNSERGK	402.29 ± 0.72 Å²	464.33 ± 2.2 Å²
FSPPSSSLQPGK	371.43 ± 0.67 Å²	
FSYTSQHSDYGQR		485.4 ± 1 Å²
FTEYETQVK	363.82 ± 1.3 Å²	
FVDSKVGEFSGANK	415.64 ± 1.8 Å²	
FYTEDSPGLK	352.82 ± 0.55 Å²	
GADFLVTEVENGGSLGSKK	494.06 ± 6.8 Å²	535.68 ± 1.1 Å²
GAEKTEVAEPR	369.12 ± 1.5 Å²	445.67 ± 5 Å²
GAPGGRGAQLSVPSPAR	428.52 Å²	492.17 ± 0.93 Å²
GAPGPQGPPGPPGK	357.97 ± 0.58 Å²	
GARLPGPVSSAR	359.36 ± 0.74 Å²	465.32 ± 9.3 Å²

Substance	collision cross section (charge state: 2)	collision cross section (charge state: 3)
GATVTRGVPPPPTVR	421.15 Å²	511.54 ± 2 Å²
GDAGEPGR	283.75 ± 1.9 Å²	
GDAGEPGRPGSPGK	357.76 ± 0.58 Å²	449.7 ± 1.2 Å²
GDIGETGVPGAEGPR	381.04 ± 0.92 Å²	
GDKGDAGEPGR	331.44 ± 0.79 Å²	419.58 ± 2 Å²
GDNGSVGEPGPK	342.97 ± 0.86 Å²	
GDPGLIGPK	313.62 ± 1.5 Å²	
GDQGEPGPSGNPGK	342.01 ± 0.23 Å²	
GDRGEIGPPGPR	366.43 ± 0.3 Å²	425.03 ± 1.2 Å²
GDTGLPGPQGIPGGVGSPGR	429.26 ± 1 Å²	497.26 ± 35 Å²
GDYDLNAVR	340.54 ± 0.15 Å²	
GEAGPTGPQGEPGVR	385.03 ± 0.4 Å²	
GEAGPTGPQGEPGVRGIR		495.75 ± 4.4 Å²
GEGGFGGRGGGR	340.19 ± 0.38 Å²	426.14 ± 4 Å²
GEIGPPGPR	309.77 ± 3.8 Å²	
GEKGDPGLIGPK	373.44 ± 1.5 Å²	449.05 ± 1.4 Å²
GEKGLPGLAGDHGEFGEK		564.38 ± 1.3 Å²
GEKGNPGVGTQGPR	370.3 ± 0.92 Å²	437.26 ± 1.3 Å²
GEPGIPAIPGIR	347.87 ± 0.23 Å²	
GEPGIPAIPGIRGPK	382.37 ± 0.58 Å²	515.69 ± 0.34 Å²
GEPGLPGHPGK	338.84 ± 0.58 Å²	
GEPGQGLRGLQGPPGK	417.18 ± 1.2 Å²	443.35 ± 0.85 Å²
GEQGEPGAPGIR	347.53 ± 0.79 Å²	
GEQGEPGAPGIRTGIQGLK	452.7 ± 0.99 Å²	505.34 ± 2.1 Å²
GERGFPGYPGPK	366.2 ± 1.3 Å²	460.83 ± 0.86 Å²
GERGPPGPPGK	325.96 ± 0.79 Å²	437.43 ± 1.2 Å²
GERGPPGPPGR	331 ± 1.5 Å²	441.17 ± 1.4 Å²
